Measurements as given in patent EP1500662A2 (CORNELL RESEARCH FOUNDATION, INC., dated 2005).

B1: C52F peptide (peptide)
peptide: NHTTWMEWDREINNYTSLIHSLIEESQNLQEKNEQELLELDKWASLWNWFNIKIK
B2: C52L peptide (peptide)
peptide: NHTTWMEWDREINNYTSLIHSLFEESQNLQEKAEQELFELDKWASLWNWFNIKIK

What was measured:
Assay in all cases: cell-based or functional assay
[1] = molecular target: envelope glycoprotein of HIV-1 94ZW103 (HIV-1 94ZW103)
[2] = molecular target: envelope glycoprotein of HIV-1 UG270 (HIV-1 UG270)
[3] = molecular target: envelope glycoprotein of HIV-1 Case C 7/86 (HIV-1 Case C 7/86)
[4] = molecular target: envelope glycoprotein of HIV-1 BZ162 (HIV-1 BZ162)
[5] = molecular target: envelope glycoprotein of HIV-1 JFRL (HIV-1 JFRL)
[6] = molecular target: envelope glycoprotein of HIV-1 CM.235 (HIV-1 CM.235)
[7] = molecular target: envelope glycoprotein of HIV-1 DJ258 (HIV-1 DJ258)
[8] = molecular target: envelope glycoprotein of HIV-1 NL4-3 (HIV-1 NL4-3)

Row | Binder | IC50 (nM), Human PBMC Infectivity Assays [1] | IC50 (nM), Human PBMC Infectivity Assays [2] | IC50 (nM), Human PBMC Infectivity Assays [3] | IC50 (nM), Human PBMC Infectivity Assays [4] | IC50 (nM), Human PBMC Infectivity Assays [5] | IC50 (nM), Human PBMC Infectivity Assays [6] | IC50 (nM), Human PBMC Infectivity Assays [7] | IC50 (nM), Human PBMC Infectivity Assays [8]
1 | B1 | 4 nM | 68 nM | 49 nM | 2 nM | 5 nM | 11 nM | 9 nM | 23 nM
2 | B2 | 3 nM | 61 nM | 17 nM | 3 nM | 6 nM | – | 11 nM | 20 nM
